The target in assay [1] is annexin A1. Briefly: QCM, peptide fixed on the sensor chip, Anxa1 injected at various doses.
Assay [2] deals with annexin A1. Nature of the assay: QCM (quartz crystal microbalance).

Square brackets hold non-standard residues; d marks the D form. Ends that are not written are not given here.

The Kd is the constant that tells how readily two partners part at equilibrium. A higher Kd goes with weaker binding. For [dL][dL][dS][dW][dP][dS][dA] [dLLS7 peptide], in the assay with annexin A1 [1], the Kd was 54.2 nM. Still for that read-out and setting: the value for [dM][dP][dT][dL][dT][dF][dR] [dMPT7 peptide] was 298 nM; that for [dS][dP][dT][dS][dL][dL][dF] [dSPT7 peptide] was 90.3 nM. On the same count and under the same terms, the value for [dL][dR][dF][dP][dT][dV][dL] [dLRF7 peptide] was 31.2 nM. Consider [dT][dI][dT][dW][dP][dT][dM] [dTIT7 peptide], for which, in the assay with annexin A1 [2], the Kd was 45.7 nM.

The values are drawn from US20190175684A1.
